Results from patent US20030012785A1 (WATSON PHARMACEUTICALS, published 2003).

Molecular target: T1, IL-2 receptor (mouse, on CTLL-2 cells and murine splenocytes) (mouse, UniProt P01590 22-268; P16297 27-539; P34902 23-369)
T1 sequence (looked up) 1: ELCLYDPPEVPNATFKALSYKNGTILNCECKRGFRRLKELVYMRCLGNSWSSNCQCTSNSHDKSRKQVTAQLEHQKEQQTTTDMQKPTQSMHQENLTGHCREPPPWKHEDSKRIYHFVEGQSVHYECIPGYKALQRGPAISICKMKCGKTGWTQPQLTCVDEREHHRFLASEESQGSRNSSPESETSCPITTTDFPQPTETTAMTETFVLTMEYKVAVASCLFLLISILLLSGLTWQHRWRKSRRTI
T1 sequence (looked up) 2: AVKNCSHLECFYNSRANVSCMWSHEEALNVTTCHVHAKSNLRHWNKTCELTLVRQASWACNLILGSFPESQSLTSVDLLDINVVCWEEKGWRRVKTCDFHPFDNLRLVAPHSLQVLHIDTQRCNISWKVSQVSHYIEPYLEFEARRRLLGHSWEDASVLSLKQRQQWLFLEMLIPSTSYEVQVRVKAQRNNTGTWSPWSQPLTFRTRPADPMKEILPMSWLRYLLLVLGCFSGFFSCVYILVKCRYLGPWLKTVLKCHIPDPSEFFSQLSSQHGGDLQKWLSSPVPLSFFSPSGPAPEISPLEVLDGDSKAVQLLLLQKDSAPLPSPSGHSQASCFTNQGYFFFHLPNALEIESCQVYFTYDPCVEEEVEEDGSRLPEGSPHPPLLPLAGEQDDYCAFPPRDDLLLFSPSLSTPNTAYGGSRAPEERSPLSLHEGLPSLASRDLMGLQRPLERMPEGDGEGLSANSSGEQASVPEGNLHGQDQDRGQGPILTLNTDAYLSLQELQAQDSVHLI
T1 sequence (looked up) 3: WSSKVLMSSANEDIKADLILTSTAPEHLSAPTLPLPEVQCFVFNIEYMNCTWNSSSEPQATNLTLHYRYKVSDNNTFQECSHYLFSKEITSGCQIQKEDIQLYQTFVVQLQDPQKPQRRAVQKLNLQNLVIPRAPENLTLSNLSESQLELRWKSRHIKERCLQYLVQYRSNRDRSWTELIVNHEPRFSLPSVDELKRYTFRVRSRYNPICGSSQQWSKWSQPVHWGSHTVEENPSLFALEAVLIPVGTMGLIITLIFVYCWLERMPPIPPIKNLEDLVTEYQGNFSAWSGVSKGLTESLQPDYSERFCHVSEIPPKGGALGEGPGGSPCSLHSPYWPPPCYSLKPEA
Experiment: cell-based or functional assay

TGLNRILLGFLG [unconjugated peptide TT23]
Percent inhibition of IL-2 induced proliferation of murine splenocytes (recombinant human IL-2, trypan blue viable cell counts, 48 hours); amount needed relative to PEG-TT23: ~100 fold
